The text below walks through data of publication PMC5278397, “Discovery of a junctional epitope antibody that stabilizes IL-6 and gp80 protein:protein interaction and modulates its downstream signaling” (Scientific Reports, 2017).

Assay [1] has as its target T1, IL-6–gp80 complex (IL-6 with gp80V4) (Homo sapiens, UniProt P05231;PDB).
T1 construct: interleukin-6 (IL-6), as m2; also called equimolar mixture of IL-6 and gp80
The assay is described as follows: SPR; His-tagged VHH6 or mutants captured from 1:5 diluted supernatants on a nickel charged NTA chip; equimolar mixture of IL-6 and gp80 (50 nM each) injected for 300 s at 10 μl/min, dissociation 300 s; BIAcore 3000; 25 °C, HBS-P+. The note with it: one partner purified.

Assay [2] deals with T2, IL-6–gp80 complex (gp80 construct not stated) (Homo sapiens, UniProt P05231;P08887).
T2 construct: interleukin-6 (IL-6), as m2; gp80, as m5; also called dimeric complex IL-6–gp80; source: mixture of IL-6 and gp80
The assay is described as follows: BLI; VHH6 captured through its His-tag on Ni-NTA tips; FusionIL-6, IL-6, gp80 and IL-6+gp80 in solution; Octet 384 Red. To be noted: both partners purified.

A further assay addresses T3, gp80 (Homo sapiens, UniProt P08887).
T3 construct: IL-6 receptor gp80 (CD126), soluble; also called CD126; IL-6 specific receptor
The assay is described as above. To be noted: both partners purified.

Another assay has as its target T4, IL-6 with gp80-hscFc (UniProt P05231;P08887).
T4 construct: interleukin-6 (IL-6), as m2; gp80 of gp80-hscFc, as m4; also called IL-6–gp80 complex (ELISA); source: one partner coated on the plate, the other added together with VHH6
The assay is described as follows: ELISA; IL-6 coated overnight and VHH6 added with gp80-hscFc, or gp80-hscFc coated overnight and VHH6 added with IL-6.

A further assay concerns the target T5, gp80-hscFc (UniProt P08887).
T5 construct: IL-6 receptor gp80 (CD126); hscFc is not explained in the text
The assay is described as follows: ELISA; IL-6, gp80 or FusionIL-6 coated at 2 μg/mL in carbonate buffer overnight at 4 °C; supernatant from HEK cells or purified VHHs added; anti-llama-HRP or anti-His-HRP; includes the initial screen.

For another assay, the target named is T6, gp80-NT647+IL-6 (Homo sapiens, UniProt P08887;P05231, NT647 dye on primary amines of lysine residues (NHS ester)).
T6 construct: gp80, as m9; interleukin-6 (IL-6), as m2; also called mixture of gp80-NT647 and IL-6; source: mixture of labelled gp80 and IL-6
T6 sequence (P08887 20-468, chain 1 of 2): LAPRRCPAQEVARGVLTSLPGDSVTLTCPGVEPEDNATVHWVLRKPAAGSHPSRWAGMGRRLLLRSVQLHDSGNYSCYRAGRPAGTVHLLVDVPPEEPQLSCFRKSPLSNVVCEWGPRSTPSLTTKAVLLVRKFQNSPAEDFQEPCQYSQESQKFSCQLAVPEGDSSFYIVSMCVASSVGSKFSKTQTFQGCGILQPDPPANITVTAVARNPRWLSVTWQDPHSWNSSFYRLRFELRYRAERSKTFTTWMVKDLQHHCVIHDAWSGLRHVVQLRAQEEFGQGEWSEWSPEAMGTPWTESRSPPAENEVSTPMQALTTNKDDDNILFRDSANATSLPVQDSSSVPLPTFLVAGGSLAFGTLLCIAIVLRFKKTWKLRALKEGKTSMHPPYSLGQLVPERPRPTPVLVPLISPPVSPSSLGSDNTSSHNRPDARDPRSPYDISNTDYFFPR
T6 sequence (P05231 30-212, chain 2 of 2): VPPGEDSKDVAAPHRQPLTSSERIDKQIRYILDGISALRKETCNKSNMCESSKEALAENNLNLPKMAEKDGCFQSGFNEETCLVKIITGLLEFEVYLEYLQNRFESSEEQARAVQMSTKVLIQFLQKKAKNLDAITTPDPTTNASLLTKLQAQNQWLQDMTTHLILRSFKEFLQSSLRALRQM
The assay is described as follows: MST; IL-6 or gp80 labelled with NT647, alone (VHH6 titrated up to 20 μM) or mixed with the unlabelled partner (10 nM IL-6NT647 and 20 nM gp80; VHH6 titrated in); Monolith NT.115, red channel. The note with it: both partners purified.

For the next assay, the target named is T7, gp80-NT647 (Homo sapiens, UniProt P08887, NT647 dye on primary amines of lysine residues (NHS ester)).
T7 construct: IL-6 receptor gp80 (CD126); also called gp80 labelled with NT647; source: labelled with the Monolith labelling Red NHS kit
T7 sequence (P08887 20-468): as the sequence (P08887 20-468, chain 1 of 2) above
Described as above. The note with it: both partners purified.

Another assay addresses T8, IL-6-NT647+gp80 (Homo sapiens, UniProt P05231;P08887, NT647 dye on primary amines of lysine residues (NHS ester)).
T8 construct: interleukin-6 (IL-6), as m8; gp80, as m5; also called mixture of IL-6-NT647 and gp80; source: mixture of 10 nM IL-6NT647 and 20 nM gp80
Described as above. To be noted: both partners purified.

For a further assay, the target named is T9, IL-6-NT647 (UniProt P05231, NT647 dye on primary amines of lysine residues (NHS ester)).
T9 construct: interleukin-6 (IL-6); also called IL-6 labelled with NT647; source: labelled with the Monolith labelling Red NHS kit
T9 sequence (P05231 30-212): as the sequence (P05231 30-212, chain 2 of 2) above
The assay is described as above. To be noted: both partners purified.

The target in a further assay is T10, IL-6 (UniProt P05231 49-212).
T10 construct: interleukin-6 (IL-6); Two in-house constructs are named (IL-6 and IL-6S21); IL-6 bought from R&D Systems was used 'for in vitro experiments'; source: E. coli, produced in house, purified
The assay is described as follows: SPR; IL-6 amine-coupled on CM5; gp80 (gp80V4) injected at 50 nM, 30 μl/min, 180 s, dissociation 360 s; 25 °C, HBS-P+; BIAcore 3000; without VHH6. The note with it: both partners purified.

T1 sequence (P05231 28-212, one chain of several): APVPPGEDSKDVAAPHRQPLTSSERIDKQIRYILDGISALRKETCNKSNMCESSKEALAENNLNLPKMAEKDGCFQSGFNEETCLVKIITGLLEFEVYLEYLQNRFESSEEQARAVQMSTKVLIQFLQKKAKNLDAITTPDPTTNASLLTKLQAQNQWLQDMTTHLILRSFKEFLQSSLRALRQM
T5 sequence (P08887 20-365): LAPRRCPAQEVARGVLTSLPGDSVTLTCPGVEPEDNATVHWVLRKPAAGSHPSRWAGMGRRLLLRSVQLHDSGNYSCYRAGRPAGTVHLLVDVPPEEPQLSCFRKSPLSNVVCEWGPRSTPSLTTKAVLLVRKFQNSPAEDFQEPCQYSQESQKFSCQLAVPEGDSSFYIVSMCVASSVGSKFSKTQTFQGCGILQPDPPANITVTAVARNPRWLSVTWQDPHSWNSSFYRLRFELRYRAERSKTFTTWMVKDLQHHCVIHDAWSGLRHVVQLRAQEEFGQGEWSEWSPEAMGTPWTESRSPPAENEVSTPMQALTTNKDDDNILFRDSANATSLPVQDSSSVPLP
T8 sequence (P05231 30-212, chain 1 of 2): as the sequence (P05231 30-212, chain 2 of 2) above
T8 sequence (P08887 20-468, chain 2 of 2): as the sequence (P08887 20-468, chain 1 of 2) above
T4 sequence (P05231 30-212, chain 1 of 2): as the sequence (P05231 30-212, chain 2 of 2) above
T4 sequence (P08887 20-468, chain 2 of 2): as the sequence (P08887 20-468, chain 1 of 2) above

B1: VHH6 Y27A mutant (VHH)
VHH: DVQFVESGGGSVHAGGSLRLNCATSGAIYSTYCMGWFRQAPGKEREGVAHIYTNSGRTYYADSVKGRFTISQDNAKNTVYLQMNSLKPEDTAIYYCAARPSIRCASFSATEYKDWGQGTQVTVSS
notes: source: Expi-HEK cells, small scale transient expression, in supernatant; not shown: His6 (TEV-6His), C-terminal, kept
For B1, in assay [1], the “fold increase of the dissociation rate against VHH6” value (shortened to “fold increase”) came out at 1.9 fold.

B2: VHH6 (VHH)
VHH: DVQFVESGGGSVHAGGSLRLNCATSGYIYSTYCMGWFRQAPGKEREGVAHIYTNSGRTYYADSVKGRFTISQDNAKNTVYLQMNSLKPEDTAIYYCAARPSIRCASFSATEYKDWGQGTQVTVSS
notes: camelid single domain antibody; The His tag is named on VHH6 for the Octet and the NTA-chip SPR; also called locking antibody; source: Expi-HEK cells, transiently transfected; in supernatant (SPR on the NTA chip) or purified; not shown: His6 (TEV-6His), C-terminal, kept
B2: the binding result in assay [2] was “binds”; with gp80, “no binding”; in the assay with IL-6 with gp80-hscFc it was “binds”; in the assay with gp80-hscFc, “no binding”; with gp80-NT647+IL-6, “binds”; with gp80-NT647, “no binding (tested: up to 20 μM VHH6)”. The binding result with IL-6-NT647+gp80 is “binds”; with IL-6-NT647 it was “no binding (tested: up to 20 μM VHH6)”.

B3: VHH6 double mutant Asn74Ala/Ser101Ala (VHH)
VHH: DVQFVESGGGSVHAGGSLRLNCATSGYIYSTYCMGWFRQAPGKEREGVAHIYTNSGRTYYADSVKGRFTISQDAAKNTVYLQMNSLKPEDTAIYYCAARPAIRCASFSATEYKDWGQGTQVTVSS
notes: also called double mutant 74/101; source: Expi-HEK cells, small scale transient expression, in supernatant; not shown: His6 (TEV-6His), C-terminal, kept
Turning to B3, the “fold increase” value in assay [1] turned out to be 3.8 fold.

B4: VHH6 double mutant Ser101Ala/Lys113Ala (VHH)
VHH: DVQFVESGGGSVHAGGSLRLNCATSGYIYSTYCMGWFRQAPGKEREGVAHIYTNSGRTYYADSVKGRFTISQDNAKNTVYLQMNSLKPEDTAIYYCAARPAIRCASFSATEYADWGQGTQVTVSS
notes: also called double mutant 113/101; source: Expi-HEK cells, small scale transient expression, in supernatant; not shown: His6 (TEV-6His), C-terminal, kept
Take B4: the “fold increase” value in [1] amounted to 4.3 fold.

B5: gp80V4 (receptor)
chain: GLAPRRCPAQEVARGAGAGDVPPEEPQLSCFRKSPLSNVVCEWGPRSTPSLTTKAVLLVRKFQNSPAEDFQEPCQYSQESQKFSCQLAVPEGDSSFYIVSMCVASSVGSKFSKTQTFQGAGILQPDPPANITVTAVARNPRWLSVTWQDPHSWNSSFYRLRFELRYRAERSKTFTTWMVKDLQHHAVIHDAWSGLRHVVQLRAQEEFGQGEWSEWSPEAMGTPWTESRSPP
modifications: N-glycosylated, high-mannose (Expi-HEK/CHO with kifunensine) for crystallography and HDX-MS. The limits and engineered changes are not given, so they are taken from the deposited 5FUC entity 2: D1 …
In turn, B5 gave a koff with IL-6 of 0.045 s⁻¹.
